# Experimental data reported in article PMC9600270 (Cancers, 2022).
# Assays:
# [1] = tested on: Rh30 cells (cell surface nucleolin); assay: Lactoferrin competition of QD-F3 binding, Rh30; type: cell-based; conditions: 2 μM lactoferrin pretreatment 20 min, then 20 nM QD-F3 + 2 μM lactoferrin 1 h on ice, FACS
# [2] = tested on: RD cells (cell surface nucleolin); assay: Lactoferrin competition of QD-F3 binding, RD; type: cell-based; conditions: 2 μM lactoferrin pretreatment 20 min, then 20 nM QD-F3 + 2 μM lactoferrin 1 h on ice, FACS
molecule,measurement,setting,value
"lactoferrin: human milk lactoferrin, high-affinity natural ligand of nucleolin (protein, UniProt P02788 20-710, looked up) Lactotransferrin: GRRRSVQWCAVSQPEATKCFQWQRNMRKVRGPPVSCIKRDSPIQCIQAIAENRADAVTLDGGFIYEAGLAPYKLRPVAAEVYGTERQPRTHYYAVAVVKKGGSFQLNELQGLKSCHTGLRRTAGWNVPIGTLRPFLNWTGPPEPIEAAVARFFSASCVPGADKGQFPNLCRLCAGTGENKCAFSSQEPYFSYSGAFKCLRDGAGDVAFIRESTVFEDLSDEAERDEYELLCPDNTRKPVDKFKDCHLARVPSHAVVARSVNGKEDAIWNLLRQAQEKFGKDKSPKFQLFGSPSGQKDLLFKDSAIGFSRVPPRIDSGLYLGSGYFTAIQNLRKSEEEVAARRARVVWCAVGEQELRKCNQWSGLSEGSVTCSSASTTEDCIALVLKGEADAMSLDGGYVYTAGKCGLVPVLAENYKSQQSSDPDPNCVDRPVEGYLAVAVVRRSDTSLTWNSVKGKKSCHTAVDRTAGWNIPMGLLFNQTGSCKFDEYFSQSCAPGSDPRSNLCALCIGDEQGENKCVPNSNERYYGYTGAFRCLAENAGDVAFVKDVTVLQNTDGNNNEAWAKDLKLADFALLCLDGKRKPVTEARSCHLAMAPNHAVVSRMDKVERLKQVLLHQQAKFGRNGSDCPDKFCLFQSETKNLLFNDNTECLARLHGKTTYEKYLGPQYVAGITNLKKCSTSPLLEACEFLRK",QD-F3 binding upon co-incubation with excess lactoferrin,[1],clear decrease
same,QD-F3 binding upon co-incubation with excess lactoferrin,[2],clear decrease
